In patent publication WO2013011062A2 (dated 2013):
Each block holds one binder with its values, some of them ahead of it.

Columns and labels:
[1] = target: T1, Human OSCAR (osteoclast-associated receptor), full length, on cells (human); assay: flow cytometry on human monocytes (CD14+ PBMC), Alexa Fluor 647-labelled mAb at 0.5 ug/ml
T1 construct: also called hOSCAR; HEK-OSCAR cells
T1 chain: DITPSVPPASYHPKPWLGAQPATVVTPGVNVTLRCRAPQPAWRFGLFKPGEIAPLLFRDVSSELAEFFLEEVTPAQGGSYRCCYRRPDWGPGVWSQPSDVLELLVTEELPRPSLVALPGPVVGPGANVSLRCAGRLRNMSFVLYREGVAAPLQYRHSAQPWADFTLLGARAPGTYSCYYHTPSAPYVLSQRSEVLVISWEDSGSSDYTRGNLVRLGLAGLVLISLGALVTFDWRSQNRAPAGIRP

Human collagen I = target: T2, Human collagen I (human, UniProt P02452 162-1218; P08123 80-1119); assay: SPR
T2 construct: Bought (Sigma C5483); also called ColI; collagen 1
T2 sequence (P02452 162-1218, chain 1 of 2): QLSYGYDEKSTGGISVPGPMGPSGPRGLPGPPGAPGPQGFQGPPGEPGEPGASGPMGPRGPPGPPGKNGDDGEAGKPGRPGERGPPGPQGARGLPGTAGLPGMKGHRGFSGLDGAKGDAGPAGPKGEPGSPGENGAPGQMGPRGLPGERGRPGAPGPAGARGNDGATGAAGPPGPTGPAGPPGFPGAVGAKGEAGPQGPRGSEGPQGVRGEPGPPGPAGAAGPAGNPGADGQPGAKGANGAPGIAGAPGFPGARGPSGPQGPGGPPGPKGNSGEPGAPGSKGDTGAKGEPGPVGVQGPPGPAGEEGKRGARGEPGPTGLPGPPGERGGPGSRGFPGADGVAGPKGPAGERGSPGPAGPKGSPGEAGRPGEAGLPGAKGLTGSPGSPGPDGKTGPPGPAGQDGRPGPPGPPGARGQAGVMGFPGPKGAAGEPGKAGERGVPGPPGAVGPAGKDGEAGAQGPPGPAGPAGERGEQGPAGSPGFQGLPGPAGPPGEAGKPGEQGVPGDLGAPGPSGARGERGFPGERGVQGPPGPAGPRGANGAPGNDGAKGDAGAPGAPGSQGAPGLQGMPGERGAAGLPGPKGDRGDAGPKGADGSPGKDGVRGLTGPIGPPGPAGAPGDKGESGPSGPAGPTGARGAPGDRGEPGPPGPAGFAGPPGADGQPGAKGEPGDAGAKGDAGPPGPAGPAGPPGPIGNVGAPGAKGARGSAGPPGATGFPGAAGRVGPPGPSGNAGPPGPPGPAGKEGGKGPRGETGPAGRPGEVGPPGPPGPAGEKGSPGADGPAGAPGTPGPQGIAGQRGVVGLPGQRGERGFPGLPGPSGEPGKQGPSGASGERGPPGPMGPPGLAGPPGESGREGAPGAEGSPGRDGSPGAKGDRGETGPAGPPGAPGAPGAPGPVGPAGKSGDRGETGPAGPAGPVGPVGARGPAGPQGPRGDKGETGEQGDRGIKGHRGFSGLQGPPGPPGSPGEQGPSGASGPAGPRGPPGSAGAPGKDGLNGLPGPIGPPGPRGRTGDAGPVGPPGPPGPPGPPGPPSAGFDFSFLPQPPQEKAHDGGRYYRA
T2 sequence (P08123 80-1119, chain 2 of 2): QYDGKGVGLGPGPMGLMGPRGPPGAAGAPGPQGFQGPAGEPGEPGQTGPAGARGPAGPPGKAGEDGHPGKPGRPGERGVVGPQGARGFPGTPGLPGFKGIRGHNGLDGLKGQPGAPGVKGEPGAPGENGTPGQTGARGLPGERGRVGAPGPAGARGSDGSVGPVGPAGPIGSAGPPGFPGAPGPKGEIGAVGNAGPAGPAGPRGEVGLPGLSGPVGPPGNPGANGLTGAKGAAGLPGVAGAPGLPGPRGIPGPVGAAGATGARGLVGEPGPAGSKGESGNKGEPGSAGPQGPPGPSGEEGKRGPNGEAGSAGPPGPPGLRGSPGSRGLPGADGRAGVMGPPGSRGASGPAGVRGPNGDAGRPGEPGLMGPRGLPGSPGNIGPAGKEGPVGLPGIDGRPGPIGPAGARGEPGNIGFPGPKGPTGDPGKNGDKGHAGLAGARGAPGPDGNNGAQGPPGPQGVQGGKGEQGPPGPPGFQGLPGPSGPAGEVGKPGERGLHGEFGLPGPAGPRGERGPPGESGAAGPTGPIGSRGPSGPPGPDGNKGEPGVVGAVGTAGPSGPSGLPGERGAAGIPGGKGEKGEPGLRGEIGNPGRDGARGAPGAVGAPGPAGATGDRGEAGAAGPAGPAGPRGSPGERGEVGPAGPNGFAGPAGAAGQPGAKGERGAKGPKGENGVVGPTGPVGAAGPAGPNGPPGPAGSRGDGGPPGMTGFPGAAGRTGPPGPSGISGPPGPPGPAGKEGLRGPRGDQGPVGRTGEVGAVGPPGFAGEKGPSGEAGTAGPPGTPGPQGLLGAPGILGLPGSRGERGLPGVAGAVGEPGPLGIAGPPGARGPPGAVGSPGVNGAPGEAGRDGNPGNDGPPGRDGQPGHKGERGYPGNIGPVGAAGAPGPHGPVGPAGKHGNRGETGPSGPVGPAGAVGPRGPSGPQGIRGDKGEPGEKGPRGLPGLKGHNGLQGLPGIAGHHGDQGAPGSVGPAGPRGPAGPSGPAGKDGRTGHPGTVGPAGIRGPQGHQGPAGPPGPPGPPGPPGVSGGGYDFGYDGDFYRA

binding result [1]: binds
B1: anti-OSCAR mAb 16F56A2 (antibody, V domains shown)
VH: QVQLVQSGAEVKKPGSSVKVSCKASGGTFSNYAISWVRQAPGQGLEWMGRIIPILGIAHNAQKFQDRVTITADKSTSTAYMELSSLRSEDTAVYYCASPSSGKGLPYWFFDLWGRGTLVTVSS
VL: DIQMTQSPSFLSASVGDRVTITCRASQSISSYLNWYQQKPGKAPKLLIYAASSLQSGVPSRFSGSGSGTDFTLTISSLQPEDFATYYCQCGYSTPLTFGGGTKVEIKR
notes: Human mAb

Kd (Human collagen I): 255 nM
B2: recombinant extracellular domain of human OSCAR (OSCAR-ECD) (receptor)
chain: DITPSVPPASYHPKPWLGAQPATVVTPGVNVTLRCRAPQPAWRFGLFKPGEIAPLLFRDVSSELAEFFLEEVTPAQGGSYRCCYRRPDWGPGVWSQPSDVLELLVTEELPRPSLVALPGPVVGPGANVSLRCAGRLRNMSFVLYREGVAAPLQYRHSAQPWADFTLLGARAPGTYSCYYHTPSAPYVLSQRSEVLVISWEDSGSSDYTR
notes: The printed entry starts with the putative signal peptide; also called Human OSCAR-ECD; OSACAR-ECD

binding result [1]: binds
B3: anti-OSCAR mAb 13F5A5 (antibody, V domains shown)
VH: EVQLVQSGAEVKKPGESLKISCKGSGYSFTSYWIVWVRQMPGKGLEWMGSIYPGDSDARYSPSFQGQVTISADKSISTAYLQWSSLKASDTAMYYCARQKITMVRGVIITPLDGMDVWGQGTTVTVSS
VL: not shown
notes: Fully human mAb (HuMab mice)
